The source of these data is US5633145, “TNFα receptor-derived binding protein” (The Mathilda and Terence Kennedy Institute of Rheumatology, dated 1997).

One assay has as its target T1, recombinant human TNFβ (human, UniProt P01374).
T1 sequence: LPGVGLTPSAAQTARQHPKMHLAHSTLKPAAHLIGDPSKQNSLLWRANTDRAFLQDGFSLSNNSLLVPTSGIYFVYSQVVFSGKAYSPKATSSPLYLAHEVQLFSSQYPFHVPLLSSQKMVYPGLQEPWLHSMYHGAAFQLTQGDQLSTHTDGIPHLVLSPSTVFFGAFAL
Put plainly: competition with 1 nM 125I-TNFα on COS-7 cells transfected with the TNFR cDNA; competitor 125I-TNFα.

The target in a further assay is recombinant human TNFα (human, UniProt P01375, radioiodinated (125I, Iodogen method) in the radioligand binding assays; unlabelled as competitor and in the cytotoxicity assays). As to the kind of experiment: radioligand binding of 125I-TNFα to COS cells transfected with prTNFR, Scatchard analysis, 4 °C.

Method for recombinant human TNFα: (§1) COS cells transfected with the TNFα receptor cDNA (prTNFR, 1300 bp EcoRI fragment) were incubated for 24 hours and then seeded into six well tissue culture plates (Nunc) at 4.5 ×10^8 cells per well. The cells were incubated for a further 48 hours and then receptor expression was quantitated by radioligand binding for 2 hours at 4° C. […] Binding data was analysed by the method of Scatchard (14).
The resulting plasmid was transfected into COS cells which were analyzed for TNF receptor expression after three days.
Method for recombinant human TNFβ: as §1

B1: recombinant human TNFα 55 kD receptor expressed in COS-7 cells from plasmid prTNFR (receptor)
chain: DSVCPQGKYIHPQNNSICCTKCHKGTYLYNDCPGPGQDTDCRECESGSFTASENHLRHCLSCSKCRKEMGQVEISSCTVDRDTVCGCRKNQYRHYWSENLFQCFNCSLCLNGTVHLSCQEKQNTVCTCHAGFFLRENECVSCSNCKKSLECTKLCLPQIENVKGTEDSGTTVLLPLVIFFGLCLLSLLFIGLMYRYQRWKSKLYSIVCGKSTPEKEGELEGTTTKPLAPNPSFSPTPGFTPTLGFSPVPSSTFTSSSTYTPGDCPNFAAPRREVAPPYQGADPILATALASDPIPNPLQKWEDSAHKPQSLDTDDPRTLYAVVENVPPLRWKEF
Regarding B1, the binding result with recombinant human TNFβ is “binds”. Further, the Ka with recombinant human TNFα is 2.5e+09 M⁻¹.
